The chains are these.
T1: EsCas13d, nuclease-dead (Eubacterium siraeum, UniProt B0MS50, R295A;H300A;R849A;H854A)
T1 sequence: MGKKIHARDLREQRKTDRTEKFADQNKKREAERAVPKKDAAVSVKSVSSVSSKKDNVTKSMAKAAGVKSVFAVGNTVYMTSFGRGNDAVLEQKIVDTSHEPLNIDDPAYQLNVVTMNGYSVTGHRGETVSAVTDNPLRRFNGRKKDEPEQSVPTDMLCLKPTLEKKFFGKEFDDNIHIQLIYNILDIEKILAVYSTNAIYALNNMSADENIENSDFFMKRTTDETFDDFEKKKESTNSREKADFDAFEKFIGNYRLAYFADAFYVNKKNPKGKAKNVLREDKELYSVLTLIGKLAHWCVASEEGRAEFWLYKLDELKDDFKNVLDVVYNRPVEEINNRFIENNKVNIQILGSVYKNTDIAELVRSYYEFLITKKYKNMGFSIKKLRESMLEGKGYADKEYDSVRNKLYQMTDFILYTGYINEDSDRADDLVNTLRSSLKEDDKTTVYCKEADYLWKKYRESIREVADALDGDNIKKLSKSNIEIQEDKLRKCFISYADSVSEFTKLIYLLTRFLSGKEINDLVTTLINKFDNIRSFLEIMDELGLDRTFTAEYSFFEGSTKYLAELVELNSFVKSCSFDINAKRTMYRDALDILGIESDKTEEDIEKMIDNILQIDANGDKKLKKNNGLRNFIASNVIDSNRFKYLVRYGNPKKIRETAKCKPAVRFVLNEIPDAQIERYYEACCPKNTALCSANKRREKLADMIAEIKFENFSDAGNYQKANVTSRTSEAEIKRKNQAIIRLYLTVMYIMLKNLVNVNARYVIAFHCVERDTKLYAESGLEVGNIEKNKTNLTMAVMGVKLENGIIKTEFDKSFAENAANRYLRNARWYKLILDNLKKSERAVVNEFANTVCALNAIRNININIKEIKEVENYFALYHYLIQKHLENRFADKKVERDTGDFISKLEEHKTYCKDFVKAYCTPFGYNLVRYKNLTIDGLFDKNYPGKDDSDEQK

B1: target 1 C2U,G5A (mixed)
RNA 1: CACCCGUGCAAAAAUGCAGGGGUCUAAAACUGAGCGGAUAACCUCUCUAUGG
RNA 2: GGGAAUGGAUCCACAUCUACGAAUUCGUACCAUAGAGAGGUUAUCCACUUACCGAGAUCGGAAGAGCACACGU
B2: target 1 insA 3' of 13,insG 3' of 2 (mixed)
RNA 1: CACCCGUGCAAAAAUGCAGGGGUCUAAAACUGAGCGGAUAACCUCUCUAUGG
RNA 2: GGGAAUGGAUCCACAUCUACGAAUUCGUACCAUAGAGAGAGUUAUCCGCUCGACCGAGAUCGGAAGAGCACACGU
B3: target 1 insG 3' of 3,insC 3' of 1 (mixed)
RNA 1: CACCCGUGCAAAAAUGCAGGGGUCUAAAACUGAGCGGAUAACCUCUCUAUGG
RNA 2: GGGAAUGGAUCCACAUCUACGAAUUCGUACCAUAGAGAGGUUAUCCGCUGCACCCGAGAUCGGAAGAGCACACGU
B4: target 3 insC 3' of 11,insG 3' of 2 (mixed)
RNA 1: CACCCGUGCAAAAUUGCAGGGGUCUAAAACGACCUGAAUAUUUCAGAUCAAA
RNA 2: GGGAAUGGAUCCACAUCUACGAAUUCGUUUUUGAUCUGAAACUAUUCAGGUGCUGCAGAUCGGAAGAGCACACGU
B5: target 3 A13G,U22G (mixed)
RNA 1: CACCCGUGCAAAAUUGCAGGGGUCUAAAACGACCUGAAUAUUUCAGAUCAAA
RNA 2: GGGAAUGGAUCCACAUCUACGAAUUCGUUGUUGAUCUGGAAUAUUCAGGUCUGCAGAUCGGAAGAGCACACGU
B6: target 3 insU 3' of 22,insU 3' of 13 (mixed)
RNA 1: CACCCGUGCAAAAUUGCAGGGGUCUAAAACGACCUGAAUAUUUCAGAUCAAA
RNA 2: GGGAAUGGAUCCACAUCUACGAAUUCGUUUUUUGAUCUGAUAAUAUUCAGGUCUGCAGAUCGGAAGAGCACACGU
B7: target 3 A5U,U8G (mixed)
RNA 1: CACCCGUGCAAAAUUGCAGGGGUCUAAAACGACCUGAAUAUUUCAGAUCAAA
RNA 2: GGGAAUGGAUCCACAUCUACGAAUUCGUUUUUGAUCUGAAAUAGUCUGGUCUGCAGAUCGGAAGAGCACACGU
B8: target 3 U8A (mixed)
RNA 1: CACCCGUGCAAAAUUGCAGGGGUCUAAAACGACCUGAAUAUUUCAGAUCAAA
RNA 2: GGGAAUGGAUCCACAUCUACGAAUUCGUUUUUGAUCUGAAAUAAUCAGGUCUGCAGAUCGGAAGAGCACACGU
B9: target 3 U2A,U22C (mixed)
RNA 1: CACCCGUGCAAAAUUGCAGGGGUCUAAAACGACCUGAAUAUUUCAGAUCAAA
RNA 2: GGGAAUGGAUCCACAUCUACGAAUUCGUUCUUGAUCUGAAAUAUUCAGGACUGCAGAUCGGAAGAGCACACGU
B10: target 3 C1U,A5G (mixed)
RNA 1: CACCCGUGCAAAAUUGCAGGGGUCUAAAACGACCUGAAUAUUUCAGAUCAAA
RNA 2: GGGAAUGGAUCCACAUCUACGAAUUCGUUUUUGAUCUGAAAUAUUCGGGUUUGCAGAUCGGAAGAGCACACGU
B11: target 3 G4C,U8A (mixed)
RNA 1: CACCCGUGCAAAAUUGCAGGGGUCUAAAACGACCUGAAUAUUUCAGAUCAAA
RNA 2: GGGAAUGGAUCCACAUCUACGAAUUCGUUUUUGAUCUGAAAUAAUCACGUCUGCAGAUCGGAAGAGCACACGU
B12: target 3 C1G,U8A (mixed)
RNA 1: CACCCGUGCAAAAUUGCAGGGGUCUAAAACGACCUGAAUAUUUCAGAUCAAA
RNA 2: GGGAAUGGAUCCACAUCUACGAAUUCGUUUUUGAUCUGAAAUAAUCAGGUGUGCAGAUCGGAAGAGCACACGU
B13: target 3 del5,del22 (mixed)
RNA 1: CACCCGUGCAAAAUUGCAGGGGUCUAAAACGACCUGAAUAUUUCAGAUCAAA
RNA 2: GGGAAUGGAUCCACAUCUACGAAUUCGUUUUGAUCUGAAAUAUUCGGUCUGCAGAUCGGAAGAGCACACGU
B14: target 3 A9G,U22C (mixed)
RNA 1: CACCCGUGCAAAAUUGCAGGGGUCUAAAACGACCUGAAUAUUUCAGAUCAAA
RNA 2: GGGAAUGGAUCCACAUCUACGAAUUCGUUCUUGAUCUGAAAUGUUCAGGUCUGCAGAUCGGAAGAGCACACGU
B15: target 3 insC 3' of 22,insA 3' of 22 (mixed)
RNA 1: CACCCGUGCAAAAUUGCAGGGGUCUAAAACGACCUGAAUAUUUCAGAUCAAA
RNA 2: GGGAAUGGAUCCACAUCUACGAAUUCGUUUCAUUGAUCUGAAAUAUUCAGGUCUGCAGAUCGGAAGAGCACACGU
B16: target 3 U21A,U22A (mixed)
RNA 1: CACCCGUGCAAAAUUGCAGGGGUCUAAAACGACCUGAAUAUUUCAGAUCAAA
RNA 2: GGGAAUGGAUCCACAUCUACGAAUUCGUUAAUGAUCUGAAAUAUUCAGGUCUGCAGAUCGGAAGAGCACACGU
B17: target 3 complement block 18-20 (mixed)
RNA 1: CACCCGUGCAAAAUUGCAGGGGUCUAAAACGACCUGAAUAUUUCAGAUCAAA
RNA 2: GGGAAUGGAUCCACAUCUACGAAUUCGUUUUACUUCUGAAAUAUUCAGGUCUGCAGAUCGGAAGAGCACACGU
B18: target 3 G4U,A5U (mixed)
RNA 1: CACCCGUGCAAAAUUGCAGGGGUCUAAAACGACCUGAAUAUUUCAGAUCAAA
RNA 2: GGGAAUGGAUCCACAUCUACGAAUUCGUUUUUGAUCUGAAAUAUUCUUGUCUGCAGAUCGGAAGAGCACACGU
B19: target 3 insA 3' of 6,insC 3' of 5 (mixed)
RNA 1: CACCCGUGCAAAAUUGCAGGGGUCUAAAACGACCUGAAUAUUUCAGAUCAAA
RNA 2: GGGAAUGGAUCCACAUCUACGAAUUCGUUUUUGAUCUGAAAUAUUCAACGGUCUGCAGAUCGGAAGAGCACACGU
B20: target 3 insG 3' of 6,insA 3' of 3 (mixed)
RNA 1: CACCCGUGCAAAAUUGCAGGGGUCUAAAACGACCUGAAUAUUUCAGAUCAAA
RNA 2: GGGAAUGGAUCCACAUCUACGAAUUCGUUUUUGAUCUGAAAUAUUCGAGGAUCUGCAGAUCGGAAGAGCACACGU
B21: target 3 insA 3' of 22,insA 3' of 21 (mixed)
RNA 1: CACCCGUGCAAAAUUGCAGGGGUCUAAAACGACCUGAAUAUUUCAGAUCAAA
RNA 2: GGGAAUGGAUCCACAUCUACGAAUUCGUUUAUAUGAUCUGAAAUAUUCAGGUCUGCAGAUCGGAAGAGCACACGU
B22: target 3 del4,del8 (mixed)
RNA 1: CACCCGUGCAAAAUUGCAGGGGUCUAAAACGACCUGAAUAUUUCAGAUCAAA
RNA 2: GGGAAUGGAUCCACAUCUACGAAUUCGUUUUUGAUCUGAAAUAUCAGUCUGCAGAUCGGAAGAGCACACGU
B23: target 3 insC 3' of 11,insA 3' of 7 (mixed)
RNA 1: CACCCGUGCAAAAUUGCAGGGGUCUAAAACGACCUGAAUAUUUCAGAUCAAA
RNA 2: GGGAAUGGAUCCACAUCUACGAAUUCGUUUUUGAUCUGAAACUAUUACAGGUCUGCAGAUCGGAAGAGCACACGU
B24: target 3 insC 3' of 13,insU 3' of 4 (mixed)
RNA 1: CACCCGUGCAAAAUUGCAGGGGUCUAAAACGACCUGAAUAUUUCAGAUCAAA
RNA 2: GGGAAUGGAUCCACAUCUACGAAUUCGUUUUUGAUCUGACAAUAUUCAGUGUCUGCAGAUCGGAAGAGCACACGU
B25: target 3 U2A,A12U (mixed)
RNA 1: CACCCGUGCAAAAUUGCAGGGGUCUAAAACGACCUGAAUAUUUCAGAUCAAA
RNA 2: GGGAAUGGAUCCACAUCUACGAAUUCGUUUUUGAUCUGAUAUAUUCAGGACUGCAGAUCGGAAGAGCACACGU
B26: target 3 C1A,U8A (mixed)
RNA 1: CACCCGUGCAAAAUUGCAGGGGUCUAAAACGACCUGAAUAUUUCAGAUCAAA
RNA 2: GGGAAUGGAUCCACAUCUACGAAUUCGUUUUUGAUCUGAAAUAAUCAGGUAUGCAGAUCGGAAGAGCACACGU
B27: target 3 C6A,A9G (mixed)
RNA 1: CACCCGUGCAAAAUUGCAGGGGUCUAAAACGACCUGAAUAUUUCAGAUCAAA
RNA 2: GGGAAUGGAUCCACAUCUACGAAUUCGUUUUUGAUCUGAAAUGUUAAGGUCUGCAGAUCGGAAGAGCACACGU

Results on 27 molecules are retold here after paper PMC10786891, “Massively parallel profiling of RNA-targeting CRISPR-Cas13d”.

As a reminder, the Kd is the concentration at which binding is half-saturated. Low readings indicate higher affinity, high ones lower affinity.

The target of this series is T1, EsCas13d, nuclease-dead. Briefly: crRNA (strand 1, pre-loaded); Mg2+; 40 mM Tris-HCl pH 7.5, 150 mM NaCl, 6 mM MgCl2, 1 mM DTT, 0.1% Tween-20, 0.2 mg/ml BSA; 25 C; 10 min per concentration, then washed. The settings on record: tags: His6-TwinStrep-SUMO cleaved; N-terminal SNAP kept (SNAP-Surface 488); label: 3' end held by stalled T7 RNA polymerase.
With B1, binding was put at a Kd of 49 ± 9 nM.

The molecule B2 displayed an equilibrium dissociation constant (Kd) of 3.54 ± 0.28 nM.

The molecule B3 registered a Kd of 11.5 ± 0.9 nM.

In turn, B4 yielded a Kd of 54 ± 14 nM.

On to B5, for which the Kd came to 67 ± 26 nM.

As to B6, the Kd amounted to 71 ± 33 nM.

The molecule B7 yielded a Kd of 92.5 ± 16.5 nM.

For B8, the Kd was found to be 58.5 ± 7.5 nM.

B9 came in with a Kd of 23.1 ± 3.7 nM. This Kd lies about 2.5-fold lower than the previous one.

Take B10: the Kd stood at 20.6 ± 3.3 nM.

In turn, B11 displayed a Kd of 71.5 ± 10 nM.

Molecule B12 gave a Kd of 45.5 ± 15.5 nM.

In the case of B13, the Kd turned out to be 29.3 ± 2.3 nM.

The molecule B14 returned a dissociation constant Kd of 25.9 ± 4 nM.

Turning to B15, the affinity, expressed as Kd, was 20.2 ± 2.4 nM.

Take B16: the Kd is 26.6 ± 3 nM.

In turn, B17 had a Kd of 26.1 ± 5.05 nM.

With B18, the Kd worked out at 25.2 ± 3.6 nM.

The molecule B19 displayed a Kd of 7.3 ± 0.55 nM.

Molecule B20 registered a Kd of 10.4 ± 1.15 nM.

In turn, B21 displayed a Kd of 31.9 ± 4.5 nM.

In turn, B22 registered a dissociation constant (Kd) of 97 ± 29 nM.

B23 gave a Kd of 65 ± 19 nM.

For B24, binding was characterised by a dissociation constant (Kd) of 59.5 ± 17.5 nM.

For the molecule B25, binding was characterised by a dissociation constant (Kd) of 79 ± 17 nM.

B26 came in with a Kd of 68 ± 17.5 nM.

B27 yielded a Kd of 59.5 ± 13 nM.
